In PMC6269467 (Nature Communications, 2018):

Columns and labels:
[1] = molecular target: T1, filamentous actin (F-actin) from rabbit skeletal muscle (rabbit, UniProt P68135 1-377); assay: BLI; F-actin immobilised on Streptavidin (SA) biosensors through LAbio peptide; αcat-ABD in solution at various concentrations; 26 °C, Octet384; 2 mM Tris-HCl pH 8.0, 0.2 mM ATP, 0.5 mM DTT, 0.1 mM CaCl2, 50 mM KCl, 2 mM MgCl2, 0.1% BSA, 0.02% Tween-20; 2:1 heterogeneous ligand model; details: both partners purified
[2] = molecular target: T1, filamentous actin (F-actin) from rabbit …; assay: co-sedimentation; actin cosedimentation at high RCF: 5 μM ABD and 5 μM actin in 50 μL Buffer-F, 1 h at RT, Airfuge ≥100,000×g 20 min at RT; supernatant and pellet by SDS-PAGE with coomassie, band intensity by ImageJ; details: both partners purified
[3] = molecular target: T1, filamentous actin (F-actin) from rabbit …; assay: BLI; as a2 but Super-Streptavidin (SSA) biosensors with increased streptavidin density, used for αEcat-ABD-H1; 1:1 binding model; details: both partners purified
[4] = molecular target: the molecule itself; assay: crystal structure; αNcat-ABD-H1 crystal forms A (P6522, 2.2 Å) and B (P212121, 2.8 Å), grown at 277 K by vapor diffusion

Binder | KD1 (2:1 heterogeneous ligand model) [1] [µM] | KD2 (2:1 heterogeneous ligand model) [1] [µM] | koff1 (2:1 heterogeneous ligand model) [1] [s⁻¹] | koff2 (2:1 heterogeneous ligand model) [1] [s⁻¹] | kon1 (2:1 heterogeneous ligand model) [1] [M⁻¹ s⁻¹] | kon2 (2:1 heterogeneous ligand model) [1] [M⁻¹ s⁻¹] | reduction in the amount of ABD cosedimenting with F-actin compared to αEcat-ABD-WT [2] [%] | Kd [3] [nM] | koff [3] [s⁻¹] | kon [3] [M⁻¹ s⁻¹] | binding result [4]
αE-catenin actin-binding domain, wild type (αEcat-ABD-WT; residues 652-906) (domain or fragment, source: E. coli BL21-CodonPlus, purified (glutathione-sepharose, thrombin cleavage, Superdex 75); not shown: GST, N-terminal, cleaved) SRTSVQTEDDQLIAGQSARAIMAQLPQEQKAKIAEQVASFQEEKSKLDAEVSKWDDSGNDIIVLAKQMCMIMMEMTDFTRGKGPLKNTSDVISAAKKIAEAGSRMDKLGRTIADHCPDSACKQDLLAYLQRIALYCHQLNICSKVKAEVQNLGGELVVSGVDSAMSLIQAAKNLMNAVVQTVKASYVASTKYQKSQGMASLNLPAVSWKMKAPEKKPLVKREKQDETQTKIKRASQKKHVNPVQALSEFKAMDSI | 2 | 0.3 | 0.465 | 0.00964 | 234000 | 31900 |  |  |  |  | 
αEcat-ABD 3A (L785A, I792A and V796A together) (domain or fragment, source: E. coli BL21-CodonPlus, purified (glutathione-sepharose, thrombin cleavage, Superdex 75); not shown: GST, N-terminal, cleaved) SRTSVQTEDDQLIAGQSARAIMAQLPQEQKAKIAEQVASFQEEKSKLDAEVSKWDDSGNDIIVLAKQMCMIMMEMTDFTRGKGPLKNTSDVISAAKKIAEAGSRMDKLGRTIADHCPDSACKQDLLAYLQRIAAYCHQLNACSKAKAEVQNLGGELVVSGVDSAMSLIQAAKNLMNAVVQTVKASYVASTKYQKSQGMASLNLPAVSWKMKAPEKKPLVKREKQDETQTKIKRASQKKHVNPVQALSEFKAMDSI | 38.4 | 6.1 | 0.799 | 0.00849 | 20800 | 1400 | 78 |  |  |  | 
αE-catenin actin-binding domain with the helix-1 mutation (αEcat-ABD-H1; RAIM670-673GSGS) (domain or fragment, source: E. coli BL21-CodonPlus, purified (glutathione-sepharose, thrombin cleavage, Superdex 75); not shown: GST, N-terminal, cleaved) SRTSVQTEDDQLIAGQSAGSGSAQLPQEQKAKIAEQVASFQEEKSKLDAEVSKWDDSGNDIIVLAKQMCMIMMEMTDFTRGKGPLKNTSDVISAAKKIAEAGSRMDKLGRTIADHCPDSACKQDLLAYLQRIALYCHQLNICSKVKAEVQNLGGELVVSGVDSAMSLIQAAKNLMNAVVQTVKASYVASTKYQKSQGMASLNLPAVSWKMKAPEKKPLVKREKQDETQTKIKRASQKKHVNPVQALSEFKAMDSI |  |  |  |  |  |  |  | 580 | 0.264 | 455000 | 
αEcat-ABD V714A (domain or fragment, source: E. coli BL21-CodonPlus, purified (glutathione-sepharose, thrombin cleavage, Superdex 75); not shown: GST, N-terminal, cleaved) SRTSVQTEDDQLIAGQSARAIMAQLPQEQKAKIAEQVASFQEEKSKLDAEVSKWDDSGNDIIALAKQMCMIMMEMTDFTRGKGPLKNTSDVISAAKKIAEAGSRMDKLGRTIADHCPDSACKQDLLAYLQRIALYCHQLNICSKVKAEVQNLGGELVVSGVDSAMSLIQAAKNLMNAVVQTVKASYVASTKYQKSQGMASLNLPAVSWKMKAPEKKPLVKREKQDETQTKIKRASQKKHVNPVQALSEFKAMDSI | 2.6 | 0.7 | 0.568 | 0.0135 | 221000 | 20100 |  |  |  |  | 
αEcat-ABD V796A (domain or fragment, source: E. coli BL21-CodonPlus, purified (glutathione-sepharose, thrombin cleavage, Superdex 75); not shown: GST, N-terminal, cleaved) SRTSVQTEDDQLIAGQSARAIMAQLPQEQKAKIAEQVASFQEEKSKLDAEVSKWDDSGNDIIVLAKQMCMIMMEMTDFTRGKGPLKNTSDVISAAKKIAEAGSRMDKLGRTIADHCPDSACKQDLLAYLQRIALYCHQLNICSKAKAEVQNLGGELVVSGVDSAMSLIQAAKNLMNAVVQTVKASYVASTKYQKSQGMASLNLPAVSWKMKAPEKKPLVKREKQDETQTKIKRASQKKHVNPVQALSEFKAMDSI | 3.7 | 1.8 | 0.773 | 0.0125 | 211000 | 6910 | 47 |  |  |  | 
αEcat-ABD L785A (domain or fragment, source: E. coli BL21-CodonPlus, purified (glutathione-sepharose, thrombin cleavage, Superdex 75); not shown: GST, N-terminal, cleaved) SRTSVQTEDDQLIAGQSARAIMAQLPQEQKAKIAEQVASFQEEKSKLDAEVSKWDDSGNDIIVLAKQMCMIMMEMTDFTRGKGPLKNTSDVISAAKKIAEAGSRMDKLGRTIADHCPDSACKQDLLAYLQRIAAYCHQLNICSKVKAEVQNLGGELVVSGVDSAMSLIQAAKNLMNAVVQTVKASYVASTKYQKSQGMASLNLPAVSWKMKAPEKKPLVKREKQDETQTKIKRASQKKHVNPVQALSEFKAMDSI | 27.8 | 4.8 | 0.69 | 0.0107 | 24900 | 2210 | 75 |  |  |  | 
αEcat-ABD I792A (domain or fragment, source: E. coli BL21-CodonPlus, purified (glutathione-sepharose, thrombin cleavage, Superdex 75); not shown: GST, N-terminal, cleaved) SRTSVQTEDDQLIAGQSARAIMAQLPQEQKAKIAEQVASFQEEKSKLDAEVSKWDDSGNDIIVLAKQMCMIMMEMTDFTRGKGPLKNTSDVISAAKKIAEAGSRMDKLGRTIADHCPDSACKQDLLAYLQRIALYCHQLNACSKVKAEVQNLGGELVVSGVDSAMSLIQAAKNLMNAVVQTVKASYVASTKYQKSQGMASLNLPAVSWKMKAPEKKPLVKREKQDETQTKIKRASQKKHVNPVQALSEFKAMDSI | 4 | 0.6 | 0.945 | 0.00881 | 234000 | 14500 | 36 |  |  |  | 
αN-catenin actin-binding domain with the helix-1 mutation (αNcat-ABD-H1) (domain or fragment, mouse, UniProt Q61301-2 651-905, looked up, The substitution is printed in αN-catenin's own numbers; PDB 4K1O is the wild-type parent; 6DUW (form A) and 6DUY (form B) are this construct; also called αN-catenin ABD-H1; αN-H1; source: E. coli BL21-CodonPlus, purified (glutathione-sepharose, thrombin cleavage, Superdex 75); 15N-labelled in M9 minimal media for NMR; not shown: GST, N-terminal, cleaved) SRTSVQTEDDQLIAGQSAGSGSAQLPQEEKAKIAEQVEIFHQEKSKLDAEVAKWDDSGNDIIVLAKQMCMIMMEMTDFTRGKGPLKNTSDVINAAKKIAEAGSRMDKLARAVADQCPDSACKQDLLAYLQRIALYCHQLNICSKVKAEVQNLGGELIVSGLDSATSLIQAAKNLMNAVVLTVKASYVASTKYQKVYGTAAVNSPVVSWKMKAPEKKPLVKREKPEEFQTRVRRGSQKKHISPVQALSEFKAMDSF |  |  |  |  |  |  |  |  |  |  | binds
